The values that follow come from US20200123265A1 (AGENUS, published 2020).

In experiment [1] the target is T1, GITR antigen (R&D systems, disulfide-linked homodimer; 689-GR) (human, UniProt Q9Y5U5 26-161, R-PE labeled in the Luminex assay; amine-coupled to a CM5 chip in the SPR assay).
T1 construct: Bought reagent; also called R-PE labeled GITR antigen
T1 sequence (looked up): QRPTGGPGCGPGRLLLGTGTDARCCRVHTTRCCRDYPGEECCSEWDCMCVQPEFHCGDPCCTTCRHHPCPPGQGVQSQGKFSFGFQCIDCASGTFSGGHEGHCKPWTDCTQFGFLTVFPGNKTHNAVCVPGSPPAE
In words: SPR (BIAcore), GITR immobilized on CM5 chip, antibody at 300 nM, applied after 231-32-15. The procedure: (§1) For epitope binning using surface plasmon resonance the “in tandem approach” was used (Abdiche, Y N et al., Analytical Biochemistry 386: 172-180 (2009)). For that purpose different chip surfaces were generated on a CM5 sensor chip (GE Healthcare, Series S CM5, BR-1005-30) using immobilization of different densities of GITR antigen (R&D systems, disulfide-linked homodimer; 689-GR). Flow cell 2 contained GITR antigen in low density (667 RU), medium density was assessed in flow cell 3 (1595 RU) and in flow cell 4, high density was achieved (4371 RU). In flow cell 1, ovalbumin (1289 RU, Pierce ThermoFisher 77120) was immobilized for reference. Immobilization was performed according to a standard protocol from the manufacturer (GE Healthcare) for amine coupling (activation of surface with 0.4 M EDC and 0.1 M NHS, GE Healthcare Amine coupling kit, BR-1000-50). Unreacted groups were inactivated with 1 M ethanol-amine-HCA, pH8.5. Afterwards anti-GITR antibodies were run through the different surfaces at a concentration of 300 nM (45 μg/ml) for 240 seconds at 5 μl/min. […] A dissociation time of 60 seconds was included before adding the competing antibody (300 nM, 5 μl/min).
A general note: Surface plasmon resonance follows binding to a sensor surface in real time, without labels.

The target of experiment [2] is T2, human GITR D60A mutant, expressed on 1624-5 cells (human, UniProt Q9Y5U5 26-241).
T2 chain: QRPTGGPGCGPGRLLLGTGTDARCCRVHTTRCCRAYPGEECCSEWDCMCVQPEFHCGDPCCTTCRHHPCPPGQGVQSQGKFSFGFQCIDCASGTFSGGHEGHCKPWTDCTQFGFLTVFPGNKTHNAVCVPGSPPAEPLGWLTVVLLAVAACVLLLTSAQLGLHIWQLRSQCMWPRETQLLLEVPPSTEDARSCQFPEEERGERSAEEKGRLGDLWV
Put plainly: flow cytometry on 1624-5 cells, 2 µg/ml, MFI ratio (monoclonal/polyclonal) of mutant against wild type. The method, then: (§2) All the mean fluorescence intensity (MFI) values were calculated as the mean of two measurements.
(§3) The percentages shown in FIG. 6B are the percentages of GITR positive cells in each plot.
Background: A flow cytometer gives signals particle by particle.

The target of experiment [3] is T3, human GITR G63A mutant, expressed on 1624-5 cells (human, UniProt Q9Y5U5 26-241).
T3 chain: T2 chain with A35D, G38A
Described as above. The procedure:
as §2, §3

Experiment [4] addresses T1, GITR antigen (R&D systems, …). In words: Luminex suspension array, 20 µg/ml competitor pre-incubated with R-PE labeled GITR; captured antibody 231-32-15. The procedure:
The bead mixture and the antigen/antibody mixture were mixed 1:1 (20 μl from each) and incubated for one additional hour under shaking conditions (20° C., 650rpm), Directly before the measurement, 40 μl of assay buffer was added to each well and analysis was performed using a Luminex® 200 system (Millipore) and a readout of 100 beads in 48 μl sample volume. Binding was determined using the […] values of the non-competed control (100% binding, only assay buffer as competing compound).

Experiment [5] concerns the target T4, V1M/Q62P/S63G cynomolgus GITR, expressed on 1624-5 cells (cynomolgus, UniProt Q9Y5U5 26-241 (human entry)).
T4 construct: V1M lies in the signal peptide and is left out with it; also called mutant cynomolgus GITR V1M/Q62P/S63G
T4 chain: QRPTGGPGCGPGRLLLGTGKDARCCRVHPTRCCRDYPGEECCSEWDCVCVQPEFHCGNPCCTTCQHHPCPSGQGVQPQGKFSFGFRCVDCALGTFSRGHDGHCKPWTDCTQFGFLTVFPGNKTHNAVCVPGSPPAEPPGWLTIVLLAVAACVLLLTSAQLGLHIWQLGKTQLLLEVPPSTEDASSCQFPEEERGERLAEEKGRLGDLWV
In words: flow cytometry on 1624-5 cells, 2 µg/ml. The text has this:
(§4) As further evidence for the binding characteristics of the anti-GITR antibodies, the binding of the antibodies to cynomolgus GITR was compared. The immature protein of cynomolgus GITR comprises the amino acid sequence of SEQ ID NO: 44. To increase protein expression, the first residue of the signal peptide of cynomolgus GITR was replaced by methionine, generating V1M cynomolgus GITR. A mutant cynomolgus GITR V1M/Q62P/S63G, where the amino acid residues at the positions 62 and 63 (GlnSer), numbered according to SEQ ID NO: 44, were replaced by the corresponding residues in human GITR (ProGly), was then generated. FIG. 7A is a sequence alignment between human GITR, V1M cynomolgus GITR, and V1M/Q62P/S63G cynomolgus GITR.

Experiment [6] concerns the target T5, V1M cynomolgus GITR, expressed on 1624-5 cells (cynomolgus, UniProt Q9Y5U5 26-241 (human entry)).
T5 chain: T4 chain with P37Q, G38S
Put plainly: flow cytometry on 1624-5 cells.
Source text: as §4

In experiment [7] the target is T1, GITR antigen (R&D systems, …). In words: SPR (BIAcore), GITR immobilized on CM5 chip, antibody at 300 nM, in tandem binning. The procedure:
as §1

Numbering of substitutions follows the chain as printed. Names and notes keep the numbering of the source.

B1: m6C8 (antibody, V domains shown)
VH: QVTLKESGPGILKPSQTLSLTCSFSGFSLSTSGMGVGWIRQPSGKGLEWLAHIWWDDDKYYNPSLKSQLTISKDTSRNQVFLKITSVDTADAATYYCARTRRYFPFAYWGQGTLVTVSS
VL: DIVMTQSQKFMSTSVGDRVSVTCKASQNVGTNVAWYQQKPGQSPKALIYSASYRYSGVPDRFTGSGSGTDFTLTINNVHSEDLAEYFCQQYNTDPLTFGAGTKLEIK
notes: Generated based on the variable regions of antibody 6C8 of WO 06/105021; also called murine antibody 6C8
For B1, the binding result in experiment [1] is listed as “binds”. The “percentage of reduction in binding relative to wild type GITR” value in experiment [2] worked out at 10%. Further, the “percentage of increase in binding relative to wild type GITR” value in experiment [3] worked out at 62%.

B2: pab1876 (antibody, human IgG1, V domains shown)
VH: QVQLVQSGAEVKKPGASVKVSCKGSGYTFTDYAMYWVRQAPGQGLEWIGVIRTYSGDVTYNQKFKDRATMTVDKSISTAYMELSRLRSDDTAVYYCAKSGTVRGFAYWGQGTLVTVSS
VL: DIVMTQSPDSLAVSLGERATINCKSSQSLLNSGNQKNYLTWYQQKPGQPPKLLIYWASTRESGVPDRFSGSGSGTDFTLTISSLQAEDVAVYHCQNDYSYPYTFGQGTKLEIKR
notes: Human IgG1 with T109S (Kabat) in the light chain constant domain
As to B2, the binding result is “binds” in experiment [4], “binds” in experiment [5] and “no binding (tested: 2 µg/ml)” in experiment [6]. Further, the “percentage of reduction in binding relative to wild type GITR” value in experiment [2] is 88%; in experiment [3], 59%.

B3: pab1875 (antibody, V domains shown)
VH: B2 VH
VL: DIVMTQSPPTLSLSPGERVTLSCKSSQSLLNSGNQKNYLTWYQQKPGQAPRLLIYWASTRESGIPARFSGSGSGTDFTLTISSLQPEDFAVYHCQNDYSYPYTFGQGTKLEIK
For the molecule B3, in experiment [4], the binding result was “binds”.

B4: chimeric parental 231-32-15 antibody (antibody, V domains shown)
VH: QVQLLQSGTELVRPGVSVKISCKGSGYTFTDYAMYWVKQSHAKSLEWIGVIRTYSGDVTYNQKFKDKATMTVDKSSSIAYMELARLSSEDSAIYYCAKSGTVRGFAYWGQGTLVTVSS
VL: DIVMTQSPSSLTVTAGEKVIMSCKSSQSLLNSGNQKNYLTWYQQKPGQPPKLLIYWASTRESGVPDRFTGSGSGTDFTLTISSVQAEDLAVYHCQNDYSYPYTFGGGTKLEIK
notes: elsewhere it was used as soluble antibody
Consider B4, for which the binding result in experiment [5] is “binds”; in experiment [7] it was “binds”; in experiment [6], “no binding (tested: 2 µg/ml)”. The “percentage of reduction in binding relative to wild type GITR” value in experiment [2] was 82%; in experiment [3], 37%.
